Starred links: 1 amine or outer side, 2 acyl side, 3 side chain; linkers in the order of their positions; H or OH if unused. Non-standard residues stand in square brackets, D forms with d. Groups on a side chain read outwards from the residue. *: point of attachment. Gal = N6-(4-(galactopyranosyloxy)butanoyl) on the lysine side chain; C18 diacid = O=C(O)CCCCCCCCCCCCCCCCC(=O)*; Dip = N[C@H](C(=O)O)C(c1ccccc1)c1ccccc1; γGlu = O=C(O)[C@H](CCC(=O)[*:2])N[*:1]; Palmitoyl = CCCCCCCCCCCCCCCC(=O)*; β3hF = N[C@H](CC(=O)O)Cc1ccccc1; 4Amb = NCc1ccc(C(=O)O)cc1; Isovaleryl = CC(C)CC(=O)*; NMeA = CN[C@@H](C)C(=O)O; AEEA = NCCOCCOCC(=O)O; Acryloyl = C=CC(=O)*; Ahx = NCCCCCC(=O)O

To fix the notation:
T1: human ferroportin (SLC40A1) fused in frame with GFP, stably expressed in HEK293 cells (human, UniProt Q9NP59 1-571)
T1 sequence (looked up): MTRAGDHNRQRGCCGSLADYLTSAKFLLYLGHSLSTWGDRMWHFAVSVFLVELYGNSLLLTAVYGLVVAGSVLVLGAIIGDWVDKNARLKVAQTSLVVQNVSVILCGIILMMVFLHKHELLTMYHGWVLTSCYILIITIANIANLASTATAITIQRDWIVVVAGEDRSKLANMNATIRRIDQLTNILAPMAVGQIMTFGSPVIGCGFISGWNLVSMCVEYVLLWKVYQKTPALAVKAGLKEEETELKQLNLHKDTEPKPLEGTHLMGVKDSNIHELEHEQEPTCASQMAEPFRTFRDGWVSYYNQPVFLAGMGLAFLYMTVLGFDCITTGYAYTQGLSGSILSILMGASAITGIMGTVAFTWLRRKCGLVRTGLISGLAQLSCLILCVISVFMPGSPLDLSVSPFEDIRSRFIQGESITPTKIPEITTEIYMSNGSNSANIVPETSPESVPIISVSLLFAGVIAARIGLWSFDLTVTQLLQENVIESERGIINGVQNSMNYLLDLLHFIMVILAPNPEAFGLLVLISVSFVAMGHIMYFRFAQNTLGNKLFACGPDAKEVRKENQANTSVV

B1: Seq. No. 563 (peptide)
peptide: XETHXPCIXXXC
modifications: not fully specified; [Isovaleric Acid]-E-T-H-[Dpa]-P-C-I-[(D)Lys]-[bhPhe]-[Lys(1PEG2_1PEG2_IsoGlu_C18_Diacid)]-C-OH
B2: Seq. No. 552 (peptide)
peptide: XETXXPCIXXXXC
modifications: not fully specified; [Isovaleric Acid]-E-T-[Lys(Acrylamide)]-[Dpa]-P-C-I-[(D)Lys]-[bhPhe]-[Lys(Ahx_Palm)]-[(D)Lys]-C-NH2
B3: Seq. No. 557 (peptide)
peptide: XXTHXPCIXXXC
modifications: not fully specified; [Isovaleric Acid]-[Dap]-T-H-[Dpa]-P-C-I-[Lys(1PEG2_1PEG2_Ahx_C18_Diacid)]-[bhPhe]-[(D)Lys]-C-NH2
B4: Seq. No. 564 (peptide)
peptide: XETXXPCIXXXC
modifications: not fully specified; [Isovaleric Acid]-E-T-[N-(Imidazolethyl)Gly]-[Dpa]-P-C-I-[Lys(1PEG2_1PEG2_Ahx_C18_Diacid)]-[bhPhe]-[(D)Lys]-C-NH2
B5: Seq. No. 565 (peptide)
peptide: XEXHXPCIXXXC
modifications: not fully specified; [Isovaleric Acid]-E-[N-(hydroxyethyl)Gly]-H-[Dpa]-P-C-I-[Lys(1PEG2_1PEG2_Ahx_C18_Diacid)]-[bhPhe]-[(D)Lys]-C-NH2
B6: Seq. No. 551 (peptide)
peptide: XEXHXPCIXXXXC
modifications: not fully specified; [Isovaleric Acid]-E-[Lys(Acrylamide)]-H-[Dpa]-P-C-I-[(D)Lys]-[bhPhe]-[Lys(Ahx_Palm)]-[(D)Lys]-C-NH2

For this test, the target named is T1, human ferroportin (SLC40A1) fused in …. The test is described as follows: cell-based or functional assay.
For the molecule Isovaleryl-ETH[Dip]PCI[dK]K(Acryloyl)K([Ahx-Palmitoyl])[dK]C-NH2 (not fully specified (bridges); cysteine pairing not given here) [Seq. No. 556], the “IC50: FPN internalisation” value amounted to 15.4 nM.

Turning to Isovaleryl-ETH[Dip]PC[dK](Gal)K([AEEA-AEEA-Ahx-C18 diacid])[β3hF][dK]C-NH2 (not fully specified (bridges); cysteine pairing not given here) [Seq. No. 560], the “IC50: FPN internalisation” value amounted to 400 nM.

B1: the “IC50: FPN internalisation” value was found to be 1190 nM.

Turning to Isovaleryl-ETH[Dip]PCI[dK]AK([Ahx-Palmitoyl])[dK]C-NH2 (not fully specified (bridges); cysteine pairing not given here) [Seq. No. 572], the “IC50: FPN internalisation” value was found to be 8.47 nM.

For Isovaleryl-ETHLPCI[dK][β3hF]K([Ahx-Palmitoyl])[dK]C-NH2 (not fully specified (bridges); cysteine pairing not given here) [Seq. No. 570], the “IC50: FPN internalisation” value is 12.7 nM.

As to B2, the “IC50: FPN internalisation” value turned out to be 48 nM.

For B3, the “IC50: FPN internalisation” value worked out at 14.2 nM.

{Cyclohexanoic Acid}-ETH[Dip]PCK([AEEA-AEEA-γGlu-C18 diacid])[β3hF][dK]C-NH2 (not fully specified (bridges); cysteine pairing not given here) [Seq. No. 562]: the “IC50: FPN internalisation” value came out at 18.4 nM.

Consider B4, for which the “IC50: FPN internalisation” value was 687 nM.

Take B5: the “IC50: FPN internalisation” value came out at 18.7 nM.

In the case of Isovaleryl-ETH[Dip]PC[4Amb]K([AEEA-AEEA-Ahx-C18 diacid])[β3hF][dK]C-NH2 (not fully specified (bridges); cysteine pairing not given here) [Seq. No. 550], the “IC50: FPN internalisation” value amounted to 13.1 nM.

Consider Isovaleryl-ETH[Dip]PCA[dK][β3hF]K([Ahx-Palmitoyl])[dK]C-NH2 (not fully specified (bridges); cysteine pairing not given here) [Seq. No. 573], for which the “IC50: FPN internalisation” value was found to be 6.47 nM.

Consider B6, for which the “IC50: FPN internalisation” value was 90 nM.

In the case of Isovaleryl-ETHAPCI[dK][β3hF]K([Ahx-Palmitoyl])[dK]C-NH2 (not fully specified (bridges); cysteine pairing not given here) [Seq. No. 575], the “IC50: FPN internalisation” value is 83 nM.

As to Isovaleryl-ETH[Dip]LCI[dK][β3hF]K([Ahx-Palmitoyl])[dK]C-NH2 (not fully specified (bridges); cysteine pairing not given here) [Seq. No. 569], the “IC50: FPN internalisation” value was 50.2 nM.

As for Isovaleryl-ETH[Dip]PC[4Amb][β3hF]K([Ahx-Palmitoyl])[dK]C-NH2 (not fully specified (bridges); cysteine pairing not given here) [Seq. No. 566], the “IC50: FPN internalisation” value is 31.8 nM.

As to Isovaleryl-ETH[Dip]PC[dK][β3hF]K([Ahx-Palmitoyl])[dK]C-NH2 (not fully specified (bridges); cysteine pairing not given here) [Seq. No. 571], the “IC50: FPN internalisation” value is 31.2 nM.

With Isovaleryl-ETH[Dip]SCIK([AEEA-AEEA-γGlu-C18 diacid])[β3hF][dK]C-NH2 (not fully specified (bridges); cysteine pairing not given here) [Seq. No. 558], the “IC50: FPN internalisation” value was found to be 39.2 nM.

Regarding Isovaleryl-ETHK(Acryloyl)PCI[dK][β3hF]K([Ahx-Palmitoyl])[dK]C-NH2 (not fully specified (bridges); cysteine pairing not given here) [Seq. No. 553], the “IC50: FPN internalisation” value turned out to be 385 nM.

As to Isovaleryl-ETH[Dip]PCI[dK]LK([Ahx-Palmitoyl])[dK]C-NH2 (not fully specified (bridges); cysteine pairing not given here) [Seq. No. 568], the “IC50: FPN internalisation” value is 11.8 nM.

As to Isovaleryl-ETH[Dip]ACI[dK][β3hF]K([Ahx-Palmitoyl])[dK]C-NH2 (not fully specified (bridges); cysteine pairing not given here) [Seq. No. 574], the “IC50: FPN internalisation” value was determined as 10.2 nM.

In the case of Isovaleryl-ETH[Dip]PCK(Gal)K([AEEA-AEEA-Ahx-C18 diacid])[β3hF][dK]C-NH2 (not fully specified (bridges); cysteine pairing not given here) [Seq. No. 561], the “IC50: FPN internalisation” value came to 17.9 nM.

Regarding Isovaleryl-ETH[Dip][NMeA]CI[dK][β3hF]K([Ahx-Palmitoyl])[dK]C-NH2 (not fully specified (bridges); cysteine pairing not given here) [Seq. No. 567], the “IC50: FPN internalisation” value was 30.8 nM.

Regarding Isovaleryl-ETH[Dip]K(Acryloyl)CI[dK][β3hF]K([Ahx-Palmitoyl])[dK]C-NH2 (not fully specified (bridges); cysteine pairing not given here) [Seq. No. 554], the “IC50: FPN internalisation” value was 103 nM.

On to Isovaleryl-ETH[Dip]PC[dK](Acryloyl)[dK][β3hF]K([Ahx-Palmitoyl])[dK]C-NH2 (not fully specified (bridges); cysteine pairing not given here) [Seq. No. 555], for which the “IC50: FPN internalisation” value amounted to 17.4 nM.
